# Test results published in US20250011434A1, “ASYMMETRIC BISPECIFIC ANTIBODY (UMG2/CD1A-CD3E) FOR THE IMMUNOLOGICAL TREATMENT OF CORTICAL-DERIVED CD1A-EXPRESSING T-CELL ACUTE LYMPHOBLASTIC LEUKEMIAS (T-ALL)” (UNIVERSITA' DEGLI STUDI MAGNA GRAECIA DI CATANZARO, published 2025).
# B1: asymmetric bispecific antibody UMG2/CD1a-CD3ε BTCE (bispecific antibody)
# heavy 1: not shown
# heavy 2: not shown
# light: DIQMTQTTSSLSASLGDRVTISCSASQDISNYLDWYQQKPDGTVRLLIYYTSSLHSGVPSRFSGSGSGTAFSLTIINLEPEDVATYYCHQYSNLPYTFGGGTKLEIKRTVAAPSVFIFPPSDEQLKSGTASVVCLLNNFYPREAKVQWKVDNALQSGNSQESVTEQDSKDSTYSLSSTLTLSKADYEKHKVYACEVTHQGLSSPVTKSFNRGEC
# Biological target: CD1a (Homo sapiens (Human), UniProt P06126)
# Assay: titration experiments on cortical, CD1a-expressing T-ALL cell lines (apparent Kd, average)
binder,measurement,value
B1,Kd,0.014 µg/mL
